Data on two molecules can be found in patent publication US20240166739A1 (KISOJI BIOTECHNOLOGY, published 2024).

The target in assay [1] is T1, recombinant human PD-1 protein (human, UniProt Q15116 25-167).
T1 construct: Bought protein; also called human recombinant PD1 protein; PD-1 recombinant protein
Description: ELISA on coated recombinant PD-1, anti-human-Fc-HRP detection. The protocol: (§1) The binding of binding agents comprising anti-PD-1 and -CD47 antigen binding domain to recombinant human or cynomolgous PD-1 (Cedarlane, Cat. No. HPLC-10377-H08H-100) or recombinant human or cynomolgous CD47 (Cedarlane, Cat. No. 12283-H08H-200 and 90869-C08H) was assessed by ELISA (FIG. 9A, FIG. 9B, FIG. 9C, FIG. 9D, FIG. 22, FIG. 23). […] The monoclonal anti-CD47 antibody (clone B6H12) was used as a positive control in CD47 binding assays (Biolegend, Cat. No. 401401).
(§2) Briefly, recombinant proteins were coated on 96-well plates. Plates were covered and left at 4° C. overnight. The next day, plates were washed once with PBS and blocked with blocking buffer for 1 hour at room temperature. Binding agents were tested at the indicated concentration, diluted in the blocking buffer, and incubated for 1 hour at 37° C. After incubation, plates were washed three times with washing buffer. Plates were incubated with anti-human-Fc-HRP (Sigma-Aldrich, Cat. No. APi 13P) diluted at 1:5000 for 1 hour at room temperature, then washed three times with PBS-T washing buffer. The signal was developed with SuperSignal™ ELISA Pico Chemiluminescent Substrate (Thermofisher, Cat. No. 37069). The plates were read on a SpectraMax™ i3x Multi-Mode Microplate Reader (Molecular Devices).

The target in assay [2] is T1, recombinant human PD-1 protein. Description: ELISA on coated recombinant PD-1 (FIG. 9A). The protocol:
as §1, §2

Assay [3] concerns the target T2, human PD-1 on CHO-PD1 cells (human, UniProt Q15116 25-288).
T2 construct: whole, on cells; also called CHO-PD-1 cell line
Nature of the assay: Flow cytometry, 20 µg/mL, CHO-PD1 against CHO parental cells (FIG. 10).
Description: The binding of binding agents to cells was assessed by flow cytometry. […] Binding agents comprising anti-PD-1 antigen binding domain, were diluted in FACS staining buffer to 20 μg/mL and added and incubated with cells for 30 minutes on ice. The PD-1 antibody (clone EH12.2H7, Biolegend) was used as a positive control.

T1 sequence (Q15116 25-167 limits assumed): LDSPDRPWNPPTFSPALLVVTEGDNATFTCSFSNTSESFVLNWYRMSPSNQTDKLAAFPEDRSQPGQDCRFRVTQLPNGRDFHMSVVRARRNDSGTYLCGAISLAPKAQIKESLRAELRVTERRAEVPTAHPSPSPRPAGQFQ
T2 sequence (Q15116 25-288): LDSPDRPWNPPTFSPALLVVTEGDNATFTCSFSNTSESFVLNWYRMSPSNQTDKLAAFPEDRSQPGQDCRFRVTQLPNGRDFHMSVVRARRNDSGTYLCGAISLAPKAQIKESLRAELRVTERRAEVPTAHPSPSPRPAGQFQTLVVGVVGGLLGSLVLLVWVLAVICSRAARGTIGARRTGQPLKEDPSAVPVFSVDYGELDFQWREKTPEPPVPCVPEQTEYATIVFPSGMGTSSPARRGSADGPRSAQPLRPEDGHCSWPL

B1: KC035 (HEWL; HEWL; HEWL negative control binding agent) (Fc fusion)
chain: QVQLVESGGGSVQAGGSLRLSCAASGSTDSIEYMTWFRQAPGKAREGVAALYTHTGNTYYTDSVKGRFTISQDKAKNMAYLRMDSVKSEDTAIYTCGATRKYVPVRFALDQSSYDYWGQGTQVTVSSEPKSCDKTHTCPPCPAPELLGGPSVFLFPPKPKDTLMISRTPEVTCVVVDVSHEDPEVKFNWYVDGVEVHNAKTKPREEQYNSTYRVVSVLTVLHQDWLNGKEYKCKVSNKALPAPIEKTISKAKGQPREPQVYTLPPSREQMTKNQVSLTCLVKGFYPSDIAVEWESNGQPENNYKTTPPVLNSDGSFFLYSKLTVDKSRWQQGNVFSCSVMHEALHNHYTQESLSLSPGKAPAPAPAPAPKAQVQLVESGGGSVQAGGSLRLSCAASGSTDSIEYMTWFRQAPGKAREGVAALYTHTGNTYYTDSVKGRFTISQDKAKNMAYLRMDSVKSEDTAIYTCGATRKYVPVRFALDQSSYDYWGQGTQVTVSSGGGGSGGGGSGGGGSQVQLVESGGGSVQAGGSLRLSCAASGSTDSIEYMTWFRQAPGKAREGVAALYTHTGNTYYTDSVKGRFTISQDKAKNMAYLRMDSVKSEDTAIYTCGATRKYVPVRFALDQSSYDYWGQGTQVTVSS
notes: Three anti-HEWL VHHs in the VHH-Fc-VHH-VHH format; negative control for KC036
As for B1, the binding result in assay [1] is on record as “no binding”.

B2: KC036 (PD-1-specific binding agent; HEWL; PD1; HEWL) (Fc fusion)
chain: QVQLVESGGGSVQAGGSLRLSCAASGSTDSIEYMTWFRQAPGKAREGVAALYTHTGNTYYTDSVKGRFTISQDKAKNMAYLRMDSVKSEDTAIYTCGATRKYVPVRFALDQSSYDYWGQGTQVTVSSEPKSCDKTHTCPPCPAPELLGGPSVFLFPPKPKDTLMISRTPEVTCVVVDVSHEDPEVKFNWYVDGVEVHNAKTKPREEQYNSTYRVVSVLTVLHQDWLNGKEYKCKVSNKALPAPIEKTISKAKGQPREPQVYTLPPSREQMTKNQVSLTCLVKGFYPSDIAVEWESNGQPENNYKTTPPVLNSDGSFFLYSKLTVDKSRWQQGNVFSCSVMHEALHNHYTQESLSLSPGKAPAPAPAPAPKAQVQLQESGGGWVQPGGSLRLSCVASGFTFSRSSMSWHRQAPGKERDLVAIISSSGIITHYSDSVKGRFTISRDNAKDTVYLQMNSLKPEDTAVYVCNAVLDDDSGDYWGQGTQVTVSSGGGGSGGGGSGGGGSQVQLVESGGGSVQAGGSLRLSCAASGSTDSIEYMTWFRQAPGKAREGVAALYTHTGNTYYTDSVKGRFTISQDKAKNMAYLRMDSVKSEDTAIYTCGATRKYVPVRFALDQSSYDYWGQGTQVTVSS
notes: Anti-HEWL VHH - IgG1 hinge-CH2-mutated CH3 - rigid linker - KC009 anti-PD-1 VHH - (G4S)3 - anti-HEWL VHH; expressed as dimer; may comprise a His-tag or not
With B2, the binding result in assay [2] and in assay [3] was “binds” throughout.
